Measurements taken from patent publication US20210122824A1 (ADAGENE, published 2021).

Columns and labels:
[1] = target: T1, human CTLA4 expressed on HEK293F cells (human, UniProt P16410 36-223); assay: flow cytometry, HEK293F cells transiently expressing the target, 100 nM antibody, PE anti-human Fc; Mean (PE-A against FITC-A, GFP surrogate)
T1 construct: whole, on cells

[2] = target: T2, human TIM3 expressed on HEK293F cells (human, UniProt Q8TDQ0 22-301); assay: as above
T2 construct: whole, on cells

[3] = target: T3, human LAG3 expressed on HEK293F cells (human, UniProt P18627 23-525); assay: as above
T3 construct: whole, on cells
T3 sequence (looked up): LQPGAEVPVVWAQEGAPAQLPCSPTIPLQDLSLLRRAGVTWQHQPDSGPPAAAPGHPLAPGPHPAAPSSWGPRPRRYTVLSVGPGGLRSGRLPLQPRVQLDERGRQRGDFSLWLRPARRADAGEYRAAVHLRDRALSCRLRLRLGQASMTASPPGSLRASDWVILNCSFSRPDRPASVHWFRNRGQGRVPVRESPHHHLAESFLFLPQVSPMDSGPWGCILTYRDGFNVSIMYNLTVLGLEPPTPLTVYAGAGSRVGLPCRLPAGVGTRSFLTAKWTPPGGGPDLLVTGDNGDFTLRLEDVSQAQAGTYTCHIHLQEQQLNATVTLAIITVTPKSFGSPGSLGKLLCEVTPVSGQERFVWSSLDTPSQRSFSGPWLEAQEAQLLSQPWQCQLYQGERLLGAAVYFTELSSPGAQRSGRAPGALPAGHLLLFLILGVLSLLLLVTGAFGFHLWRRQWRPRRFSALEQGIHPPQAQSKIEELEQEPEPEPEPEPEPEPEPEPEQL

[4] = target: T4, human PD-L1-Fc fusion protein (Sino Biological Cat #10084-H02H) (human, UniProt Q9NZQ7 19-239); assay: SPR (Biacore T200), human PD-L1-Fc immobilized (300 RU), IgG in solution
T4 construct: bought; not shown: Fc part of the bought fusion

[5] = target: T5, human PD1 expressed on HEK293F cells (human, UniProt Q15116 25-288); assay: flow cytometry, HEK293F cells transiently expressing the target, 100 nM antibody, PE anti-human Fc; Mean (PE-A against FITC-A, GFP surrogate)
T5 construct: whole, on cells

[6] = target: T6, rhesus PD-L1 expressed on HEK293F cells (rhesus, UniProt F6VEW6 19-290); assay: as above
T6 construct: whole, on cells

[7] = target: T7, human PD-L1 expressed on cell surface (human, UniProt Q9NZQ7 19-290); assay: as above
T7 construct: whole, on cells; also called full-length human PD-L1; cell surface PD-L1

[8] = target: T8, rhesus PD-L1-Fc fusion protein (Sino Biological cat #90251-C02H) (rhesus, UniProt F6PJN1 19-239); assay: SPR (Biacore T200), PD-L1-Fc immobilized (about 500 RU), IgG in solution
T8 construct: not shown: Fc part

[9] = target: T4, human PD-L1-Fc fusion protein (Sino …); assay: as above
[10] = target: T9, mouse PD-L1-Fc fusion protein (mouse, UniProt Q9EP73 19-238, limits assumed); assay: as above
T9 construct: not shown: Fc part

[11] = target: T10, rat PD-L1-Fc fusion protein (Sino Biological cat #80450-R08H) (rat); assay: as above
T10 construct: text calls all four immobilized proteins PD-L1-Fc fusion proteins

[12] = target: T5, human PD1 expressed on HEK293F cells; assay: flow cytometry on transfected HEK293F cells
[13] = target: T1, human CTLA4 expressed on HEK293F cells; assay: flow cytometry on transfected HEK293F cells
[14] = target: T2, human TIM3 expressed on HEK293F cells; assay: flow cytometry on transfected HEK293F cells
[15] = target: T3, human LAG3 expressed on HEK293F cells; assay: flow cytometry on transfected HEK293F cells
[16] = target: T7, human PD-L1 expressed on cell surface; assay: blocking by flow cytometry, HEK293F cells expressing full-length human PD-L1, 100 nM antibody then 100 nM biotinylated PD1-His (blocked ligand), Alexa fluor 633 streptavidin; isotype control panel Q2 35.1%

T9 sequence (Q9EP73 19-238 limits assumed): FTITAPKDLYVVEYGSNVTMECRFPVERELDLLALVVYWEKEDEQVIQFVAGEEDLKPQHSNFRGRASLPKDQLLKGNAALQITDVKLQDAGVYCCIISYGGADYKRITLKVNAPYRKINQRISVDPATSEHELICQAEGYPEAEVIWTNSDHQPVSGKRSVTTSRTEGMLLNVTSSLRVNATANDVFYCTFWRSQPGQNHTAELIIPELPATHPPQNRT
T4 sequence (Q9NZQ7 19-239 limits assumed): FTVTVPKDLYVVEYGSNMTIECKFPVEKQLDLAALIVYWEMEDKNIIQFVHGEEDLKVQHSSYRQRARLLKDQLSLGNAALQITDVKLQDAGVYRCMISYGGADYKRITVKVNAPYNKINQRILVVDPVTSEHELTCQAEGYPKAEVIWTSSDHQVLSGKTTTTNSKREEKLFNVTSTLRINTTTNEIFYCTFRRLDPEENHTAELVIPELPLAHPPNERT
T7 sequence (Q9NZQ7 19-290): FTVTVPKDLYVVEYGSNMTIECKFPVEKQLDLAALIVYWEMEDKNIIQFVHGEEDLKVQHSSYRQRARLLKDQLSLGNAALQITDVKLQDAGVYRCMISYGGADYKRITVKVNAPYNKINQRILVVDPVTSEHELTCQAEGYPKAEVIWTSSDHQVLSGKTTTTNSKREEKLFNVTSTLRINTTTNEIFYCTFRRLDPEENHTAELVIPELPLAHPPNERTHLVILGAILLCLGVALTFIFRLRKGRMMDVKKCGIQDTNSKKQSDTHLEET
T1 sequence (P16410 36-223): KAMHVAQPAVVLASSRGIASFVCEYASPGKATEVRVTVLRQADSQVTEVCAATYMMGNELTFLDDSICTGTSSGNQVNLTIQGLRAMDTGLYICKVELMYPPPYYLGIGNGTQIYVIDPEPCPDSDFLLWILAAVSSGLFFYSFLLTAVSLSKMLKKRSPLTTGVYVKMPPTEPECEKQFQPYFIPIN
T5 sequence (Q15116 25-288): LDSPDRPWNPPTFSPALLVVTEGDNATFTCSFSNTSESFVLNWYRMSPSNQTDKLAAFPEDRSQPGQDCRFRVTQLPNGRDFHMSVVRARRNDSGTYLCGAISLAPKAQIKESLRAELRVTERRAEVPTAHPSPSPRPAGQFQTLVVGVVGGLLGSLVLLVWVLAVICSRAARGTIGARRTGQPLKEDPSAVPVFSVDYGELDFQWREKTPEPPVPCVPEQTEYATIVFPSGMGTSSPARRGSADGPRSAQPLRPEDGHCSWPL

B1: TY21421 (antibody, V domains shown)
VH: EVQLVESGGGLVQPGGSLRLSCAASGYSISSGYYWGWIRQAPGKGLEWIGIIYPSGGGTNYAQKFQGRVTISRDNSKNTLYLQLNSLRAEDTAVYYCARGGGLGFDYWGQGTLVTVSS
VL: DIQLTQSPSSLSASVGDRVTITCRASQSIPSFLNWYQQKPGKAPKLLIYAASSLQSGVPSRFSGSGSGTDFTLTISSLQPEDFATYYCQHYISWPRQFTFGQGTKVEIKR
notes: IgG1 (wild type) made from Fab B15041, from HEK293F cells
[1]
  Mean: 4900
[2]
  Mean: 8100
[3]
  Mean: 5850
[4]
  Kd: 8.63 pM
  koff: 5.73e-05 s⁻¹
  kon: 6.64e+06 M⁻¹ s⁻¹
[5]
  Mean: 6980
[6]
  Mean: 184000
[7]
  Mean: 170000
[8]
  Kd: 1.85 pM
  koff: 7.27e-06 s⁻¹
  kon: 3.93e+06 M⁻¹ s⁻¹
[9]
  Kd: 6.19 pM
  koff: 2.97e-05 s⁻¹
  kon: 4.8e+06 M⁻¹ s⁻¹
[10]
  Kd: 1.86 pM
  koff: 2.06e-05 s⁻¹
  kon: 1.11e+07 M⁻¹ s⁻¹
[11]
  Kd: 20.9 pM
  koff: 0.000106 s⁻¹
  kon: 5.07e+06 M⁻¹ s⁻¹
[12]
  binding result: no binding (tested: 100 nM)
[13]
  binding result: no binding (tested: 100 nM)
[14]
  binding result: no binding (tested: 100 nM)
[15]
  binding result: no binding (tested: 100 nM)
[16]
  Q2 (percent of cells positive for GFP and for the APC signal of PD1-His, antibody present): 0.27%
